Experiments:
[1] = target: T1, HLA class I molecule A02.01; assay: competition with radiolabeled reference peptide on purified MHC I
T1 construct: Purified MHC class I complex; also called HLA-A02:01
Method: (§1) Peptides were incubated at varying concentrations with these complexes for 2 days, and the amount of remaining radiolabeled peptide bound to […] was measured using size exclusion gel-filtration.

[2] = target: T1, HLA class I molecule A02.01; assay: pMHC-I dissociation half-life, 125I-b2m
Method: Briefly, synthetic genes encoding biotinylated MHC-I heavy and light chains are expressed in E. coli and purified from inclusion bodies using standard methods. […] These reactions are carried out in streptavidin coated microplates to bind the biotinylated MHC-I heavy chains to the surface and allow measurement of radiolabeled light chain to monitor complex formation. Dissociation is initiated by addition of higher concentrations of unlabeled light-chain and incubation at 37° C. Stability is defined as the length of time in hours it takes for half of the complexes to dissociate, as measured by scintillation counts.

[3] = target: T2, HLA-A02.01 (human); assay: competition with radiolabeled reference peptide, purified MHC I
T2 construct: Purified class I MHC
Method: as §1

Row | Binder | IC50 [1] [nM] | Stability (T1/2 (h)) [2] [h] | IC50 [3] [nM]
1 | FSGEYIPTV (also called RAC1, P29S) | 3 | 6.8 | 
2 | QQQSDLQPPA (also called MYC, E39D) | 646 | 0 | 
3 | VMSDTTYKI (also called TTK(-1)) |  |  | 19.6
4 | VLHESNSPYI (also called MEK, C121S) | 131 | 1.9 | 
5 | KSLVRLSSCV (also called TGFBR2(-1)) |  |  | 280
6 | FELLPIPPL (also called MYC, T58I) | 553 | 0 | 
7 | LVRLSSCVPV (also called TGFBR2(-1)) |  |  | 1240
8 | VRLSSCVPVA (also called TGFBR2(-1)) |  |  | 1210
9 | AFSGEYIPTV (also called RAC1, P29S) | 781 | 0 | 
10 | QTGVMICAYL (also called PTEN, R130Q) | 9760 | 0 | 
11 | LQEFDVQEAL (also called NDRG1: ERG) | 50300 | 0 | 
12 | LLSTPPLSPS (also called MYC, P57S) | 1770 | 0 | 
13 | SLVRLSSCV (also called TGFBR2(-1)) |  |  | 29.9
14 | SLYIVGFYGA (also called MEK, P124L) | 390 | 0.4 | 
15 | IMSLWGLVS (also called NAB: STAT6 (variant 1 of Chmielecki et al.)) | 7320 | 0 | 
16 | ALMSAMTTS (also called TGFBR2(-1)) |  |  | 139
17 | KITEQEKDFL (also called PIK3CA, E542K) | 1400 | 0 | 
18 | YLTKWPKFFL (also called XPOT(-1)) |  |  | 42.9
19 | IIIEYCFYG (also called PDGFRa, T674I) | 16 | 1.2 | 
20 | KKLMLLRLNL (also called SEC31A(-1)) |  |  | 289
21 | LLQEFDVQEA (also called NDRG1: ERG) | 45 | 2.5 | 
22 | FVMSDTTYKI (also called TTK(-1)) |  |  | 62.4
23 | YIIIEYCFYG (also called PDGFRa, T674I) | 113 | 0 | 
24 | RLSSCVPVAL (also called TGFBR2(-1)) |  |  | 54.2
25 | SLYIVGFYG (also called MEK, P124L) | 1060 | 0 | 
26 | FALCGFWQI (also called SLC35F5(-1)) |  |  | 0.4
27 | QQSDLQPPA (also called MYC, E39D) | 70 | 0 | 
28 | FVQGKDWGL (also called SPOP, F133L) |  |  | 34

From patent US20220282217A1 (BIONTECH US, published 2022)
